Results: patent publication US20220125891A1 (OSAKA UNIVERSITY, published 2022)
Positions of bridges follow the written chain, without caps; N, C: chain ends. Non-standard residues stand in square brackets, D forms with d. No end group written: not given here. NMeA = CN[C@@H](C)C(=O)O; dNMeA = CN[C@H](C)C(=O)O

T1: full-length human Regnase-1 with a FLAG tag on the N-terminal side and a biotin ligase BirA recognition … (human, UniProt Q5D1E8 1-599, biotinylated where required ; Biotinylated at the BirA recognition sequence where required. That sequence is not in the letters.)
T1 construct: Expressed in Expi293 cells, purified on FLAG M2 agarose and by gel filtration; also called full-length Regnase-1; human full-length Regnase-1
T1 sequence: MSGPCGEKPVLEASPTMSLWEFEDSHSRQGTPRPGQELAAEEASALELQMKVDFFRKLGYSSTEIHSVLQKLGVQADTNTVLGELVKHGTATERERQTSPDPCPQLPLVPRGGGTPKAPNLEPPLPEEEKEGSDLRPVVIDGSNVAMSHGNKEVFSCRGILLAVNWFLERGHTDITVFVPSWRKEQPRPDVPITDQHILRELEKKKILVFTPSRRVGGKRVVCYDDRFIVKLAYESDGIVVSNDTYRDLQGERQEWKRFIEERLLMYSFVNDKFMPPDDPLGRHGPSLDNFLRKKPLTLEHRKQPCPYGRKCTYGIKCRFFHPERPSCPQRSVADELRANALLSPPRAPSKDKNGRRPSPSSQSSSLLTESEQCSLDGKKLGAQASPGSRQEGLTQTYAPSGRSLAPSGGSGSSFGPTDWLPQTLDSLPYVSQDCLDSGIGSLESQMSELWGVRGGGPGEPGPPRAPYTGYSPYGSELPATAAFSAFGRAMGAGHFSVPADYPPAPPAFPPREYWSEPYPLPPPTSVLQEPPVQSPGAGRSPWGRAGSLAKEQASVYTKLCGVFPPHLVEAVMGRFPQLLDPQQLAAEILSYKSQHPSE

T2: Reg1_301-599 (human Regnase-1 amino acids 301 to 599, FLAG tag on the N-terminal side, BirA recognition … (human))
T2 sequence (Q5D1E8 301-599, looked up): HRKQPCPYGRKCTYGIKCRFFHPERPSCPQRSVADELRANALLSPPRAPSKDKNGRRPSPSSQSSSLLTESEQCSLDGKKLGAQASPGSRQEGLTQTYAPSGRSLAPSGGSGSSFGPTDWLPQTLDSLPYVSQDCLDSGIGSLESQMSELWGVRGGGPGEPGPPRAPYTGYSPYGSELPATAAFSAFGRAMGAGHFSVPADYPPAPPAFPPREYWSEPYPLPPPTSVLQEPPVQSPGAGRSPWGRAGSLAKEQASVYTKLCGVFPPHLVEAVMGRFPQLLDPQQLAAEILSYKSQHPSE


target: T1, full-length human Regnase-1 with a FLAG …; assay: affinity selection-MS (SEC, LC/MS), 1 µM each

| AS-MS ratio(%) | Binder |
| --- | --- |
| 15.8% | [NMeA]NFNSAYYRAIWD (lactam N-13) [PP7] |
| 51.1% | [NMeA]WIWDFWNED (lactam N-10) [PP24] |
| 15.1% | [NMeA]NSWYKIWGLD (lactam N-11) [PP21] |
| 21% | [NMeA]RYAVYQWIYPD (lactam N-12) [PP12] |
| 2.1% | [NMeA]VFYKIWYNWD (lactam N-11) [PP19] |
| 6.9% | [dNMeA]EDTPEDDHD (lactam N-10) [PP25] |
| 17.9% | [NMeA]NFSNSWYNIWD (lactam N-12) [PP16] |
| 85% | [NMeA]KFWIHHSFED (lactam N-11) [PP20] |
| 4.2% | [NMeA]RFGVWSWIYPD (lactam N-12) [PP14] |

target: T3, ΔCTD_Reg1 (human Regnase-1 amino acids 1 to 546, FLAG tag on the N-terminal side, BirA recognition sequence … (human)); assay: cell-based or functional assay

| IC50, phosphorylation by IKKβ | Binder |
| --- | --- |
| 4.5 µM | [NMeA]NFNSAYYRAIWD (lactam N-13) [PP7] |
| 4 µM | [NMeA]WIWDFWNED (lactam N-10) [PP24] |
| 39.3 µM | [NMeA]NSWYKIWGLD (lactam N-11) [PP21] |
| 27 µM | [NMeA]RYAVYQWIYPD (lactam N-12) [PP12] |
| 12.6 µM | [NMeA]VFYKIWYNWD (lactam N-11) [PP19] |
| 47.7 µM | [dNMeA]EDTPEDDHD (lactam N-10) [PP25] |
| 30.8 µM | [NMeA]NFSNSWYNIWD (lactam N-12) [PP16] |
| > 62.1 µM | [NMeA]KFWIHHSFED (lactam N-11) [PP20] |
| 9 µM | [NMeA]RFGVWSWIYPD (lactam N-12) [PP14] |

target: T2, Reg1_301-599 (human Regnase-1 amino …); assay: cell-based or functional assay

| IC50, phosphorylation by IKKβ | Binder |
| --- | --- |
| 3 µM | [NMeA]NFNSAYYRAIWD (lactam N-13) [PP7] |
| 7.2 µM | [NMeA]WIWDFWNED (lactam N-10) [PP24] |
| 37.2 µM | [NMeA]NSWYKIWGLD (lactam N-11) [PP21] |
| 20.7 µM | [NMeA]RYAVYQWIYPD (lactam N-12) [PP12] |
| 10.1 µM | [NMeA]VFYKIWYNWD (lactam N-11) [PP19] |
| 27.6 µM | [dNMeA]EDTPEDDHD (lactam N-10) [PP25] |
| 42.2 µM | [NMeA]NFSNSWYNIWD (lactam N-12) [PP16] |
| > 62.1 µM | [NMeA]KFWIHHSFED (lactam N-11) [PP20] |
| 6.5 µM | [NMeA]RFGVWSWIYPD (lactam N-12) [PP14] |

target: T1, full-length human Regnase-1 with a FLAG …; assay: cell-based or functional assay

| IC50, phosphorylation by IKKβ | Binder |
| --- | --- |
| 0.8 µM | [NMeA]NFNSAYYRAIWD (lactam N-13) [PP7] |
| 5.3 µM | [NMeA]WIWDFWNED (lactam N-10) [PP24] |
| 19.6 µM | [NMeA]NSWYKIWGLD (lactam N-11) [PP21] |
| 6.8 µM | [NMeA]RYAVYQWIYPD (lactam N-12) [PP12] |
| 5.4 µM | [NMeA]VFYKIWYNWD (lactam N-11) [PP19] |
| 27 µM | [dNMeA]EDTPEDDHD (lactam N-10) [PP25] |
| 20.6 µM | [NMeA]NFSNSWYNIWD (lactam N-12) [PP16] |
| 24.7 µM | [NMeA]KFWIHHSFED (lactam N-11) [PP20] |
| 1.6 µM | [NMeA]RFGVWSWIYPD (lactam N-12) [PP14] |

target: T1, full-length human Regnase-1 with a FLAG …; assay: AlphaScreen, blocks IKKβ binding to FL_Reg1

| IC50 | Binder |
| --- | --- |
| 15.1 µM | [NMeA]NFNSAYYRAIWD (lactam N-13) [PP7] |
| 8.8 µM | [NMeA]WIWDFWNED (lactam N-10) [PP24] |
| 20.7 µM | [NMeA]NSWYKIWGLD (lactam N-11) [PP21] |
| > 62.1 µM | [NMeA]RYAVYQWIYPD (lactam N-12) [PP12] |
| 5.8 µM | [NMeA]VFYKIWYNWD (lactam N-11) [PP19] |
| > 62.1 µM | [dNMeA]EDTPEDDHD (lactam N-10) [PP25] |
| > 62.1 µM | [NMeA]NFSNSWYNIWD (lactam N-12) [PP16] |
| > 62.1 µM | [NMeA]KFWIHHSFED (lactam N-11) [PP20] |
| 20.1 µM | [NMeA]RFGVWSWIYPD (lactam N-12) [PP14] |

target: T1, full-length human Regnase-1 with a FLAG …; assay: AlphaScreen, blocks TBK1 binding to FL_Reg1

| IC50 | Binder |
| --- | --- |
| 17.9 µM | [NMeA]NFNSAYYRAIWD (lactam N-13) [PP7] |
| 7.7 µM | [NMeA]WIWDFWNED (lactam N-10) [PP24] |
| 5.6 µM | [NMeA]NSWYKIWGLD (lactam N-11) [PP21] |
| > 62.1 µM | [NMeA]RYAVYQWIYPD (lactam N-12) [PP12] |
| 2.4 µM | [NMeA]VFYKIWYNWD (lactam N-11) [PP19] |
| 13.1 µM | [dNMeA]EDTPEDDHD (lactam N-10) [PP25] |
| 20.2 µM | [NMeA]NFSNSWYNIWD (lactam N-12) [PP16] |
| 47.6 µM | [NMeA]KFWIHHSFED (lactam N-11) [PP20] |
| 7.1 µM | [NMeA]RFGVWSWIYPD (lactam N-12) [PP14] |

target: T3, ΔCTD_Reg1 (human Regnase-1 amino acids …); assay: cell-based or functional assay; remark: another data set of the same source

| IC50, phosphorylation by TBK1 | Binder |
| --- | --- |
| 4.7 µM | [NMeA]NFNSAYYRAIWD (lactam N-13) [PP7] |
| 27.3 µM | [NMeA]WIWDFWNED (lactam N-10) [PP24] |
| 11.7 µM | [NMeA]NSWYKIWGLD (lactam N-11) [PP21] |
| 22.5 µM | [NMeA]RYAVYQWIYPD (lactam N-12) [PP12] |
| 4.6 µM | [NMeA]VFYKIWYNWD (lactam N-11) [PP19] |
| 16.1 µM | [dNMeA]EDTPEDDHD (lactam N-10) [PP25] |
| 38.1 µM | [NMeA]NFSNSWYNIWD (lactam N-12) [PP16] |
| > 62.1 µM | [NMeA]KFWIHHSFED (lactam N-11) [PP20] |
| 5.2 µM | [NMeA]RFGVWSWIYPD (lactam N-12) [PP14] |

target: T2, Reg1_301-599 (human Regnase-1 amino …); assay: cell-based or functional assay; remark: another data set of the same source

| IC50, phosphorylation by TBK1 | Binder |
| --- | --- |
| 4.6 µM | [NMeA]NFNSAYYRAIWD (lactam N-13) [PP7] |
| 34.8 µM | [NMeA]WIWDFWNED (lactam N-10) [PP24] |
| 17 µM | [NMeA]NSWYKIWGLD (lactam N-11) [PP21] |
| 19.6 µM | [NMeA]RYAVYQWIYPD (lactam N-12) [PP12] |
| 5.8 µM | [NMeA]VFYKIWYNWD (lactam N-11) [PP19] |
| 16.3 µM | [dNMeA]EDTPEDDHD (lactam N-10) [PP25] |
| > 62.1 µM | [NMeA]NFSNSWYNIWD (lactam N-12) [PP16] |
| > 62.1 µM | [NMeA]KFWIHHSFED (lactam N-11) [PP20] |
| 6.8 µM | [NMeA]RFGVWSWIYPD (lactam N-12) [PP14] |

target: T1, full-length human Regnase-1 with a FLAG …; assay: cell-based or functional assay; remark: another data set of the same source

| IC50, phosphorylation by TBK1 | Binder |
| --- | --- |
| 2.2 µM | [NMeA]NFNSAYYRAIWD (lactam N-13) [PP7] |
| 35.7 µM | [NMeA]WIWDFWNED (lactam N-10) [PP24] |
| 13.5 µM | [NMeA]NSWYKIWGLD (lactam N-11) [PP21] |
| 12.7 µM | [NMeA]RYAVYQWIYPD (lactam N-12) [PP12] |
| 3.7 µM | [NMeA]VFYKIWYNWD (lactam N-11) [PP19] |
| 18.9 µM | [dNMeA]EDTPEDDHD (lactam N-10) [PP25] |
| 52.4 µM | [NMeA]NFSNSWYNIWD (lactam N-12) [PP16] |
| 38.5 µM | [NMeA]KFWIHHSFED (lactam N-11) [PP20] |
| 3.1 µM | [NMeA]RFGVWSWIYPD (lactam N-12) [PP14] |
